Test results taken from patent US20170267970A1, “Three-Dimensional Hydrogels that Support Growth of Physiologically Relevant Tissue and Methods of Use Thereof” (Whitehead Institute for Biomedical Research, priority 2016, published 2017).
Entries after “also recorded” stand apart in the source; their conditions may differ.

Experiments:
[1] = tested on: breast cancer samples cultured in 3D culture; test: Tamoxifen sensitivity of breast cancer samples in 3D culture (CellTiter-Glo on intact gels); type: cell-based, human; conditions: 48 hours of treatment; ER-positive cancer cells
Method: (§1) Shown are cell counts for each dose of drug following 48 hours of treatment. Cells were counted using CellTiter-Glo assay performed on intact gels. […] Both cultures were grown in hydrogel culture for nine days with 40 ng/mL nerve growth factor.

[2] = tested on: mouse dorsal root ganglia neurons; test: Growth of dorsal root ganglia neurons in hydrogels with nerve growth factor; type: cell-based; conditions: 40 ng/mL NGF; nine days
Method: as §1
Mouse dorsal root ganglia were collected and either dissociated into single cells (FIG. 22A) or kept intact (FIG. 22B), and seeded into hydrogels containing no growth factors aside from 40 ng/mL nerve growth factor (NGF). They were cultured in 50% DMEM, 50% F12 growth media supplemented with 10% heat-inactivated fetal bovine serum and 40 ng/mL NGF. The cultures were grown for nine days, at which point they were fixed and stained for the expression of the sodium channel NaV1.7 (a marker of nociceptive neurons) and the DNA dye DAPI.

[3] = tested on: breast tissues cultured in hydrogel scaffolds; test: Morphological response to hormones of breast tissues cultured in hydrogel scaffolds; type: cell-based, human
Text: FIG. 1A is a schematic representation of hydrogel assembly. FIG. 1B depicts representative bright-field images of tissue growth after ten days in Matrigel, polymerized collagen or the presently disclosed three-dimensional hydrogels (e.g., in the absence of BPE), alongside carmine stained mammary tissue sections from independent reduction mammoplasty patients. […] FIG. 1E depicts schematic and representative images showing the effect of pituitary hormones (0.4% bovine pituitary extract [BPE]) and 1 μg/mL recombinant human prolactin administration on the development of tissue structures grown in the presently disclosed three-dimensional hydrogels. BPE was added at seeding (D0) and prolactin at two weeks (N=4, 7 and 14, 1 resp). Bottom left images show representative architecture prior to the administration of prolactin. […] Error bars represent SEM.
Distance of the section from the surface of the structure is indicated. Scale bars are 200 μm.
We next assessed if breast tissues cultured in hydrogel scaffolds respond to steroid, pituitary, or lactogenic hormones, which are known to stimulate the development of mammary epithelial tissue in vivo.

## CC/C(=C(\c1ccccc1)c1ccc(OCCN(C)C)cc1)c1ccccc1 [tamoxifen]
[1]
  sensitivity / responsiveness to tamoxifen (cell counts): consistently responsive; also recorded: exhibit sensitivity

## nerve growth factor: nerve growth factor, 40 ng/mL in hydrogel and medium
[2]
  neuron survival and growth of axons and dendrites: survive and grow new axons and dendrites

B1: prolactin: lactogenic hormone; 1 μg/mL recombinant human prolactin (protein, UniProt P01236 29-227, looked up)
Prolactin: LPICPGGAARCQVTLRDLFDRAVVLSHYIHNLSSEMFSEFDKRYTHGRGFITKAINSCHTSSLATPEDKEQAQQMNQKDFLSLIVSILRSWNEPLYHLVTEVRGMQEAPEAILSKAVEIEEQTKRLLEGMELIVSQVHPETKENEIYPVWSGLPSLQMADEESRLSAYYNLLHCLRRDSHKIDNYLKLLKCRIIHNNNC
[3]; 1 μg/mL recombinant human prolactin added at two weeks, day 21
  increase in lobular volume: 4 fold
[3]; prolactin 1 μg/mL
  lipid droplets / lipid content (H&E, oil red O staining): formation of large lipid droplets; also recorded: lipid rich; also recorded: Lipid droplets can be seen
[3]; prolactin after 2 weeks of estrogen and progesterone
  formation of milk-like opaque substance in lumens: promotes the formation of an opaque substance that fills the luminal space of the structures
